According to publication PMC7596504, “Molecular mechanism of the MORC4 ATPase activation” (Nature Communications, 2020):

Legend:
[1] = tested on: NCP147; test: Fluorescence polarization binding to NCP147
[2] = tested on: NCP207; test: Fluorescence polarization binding to NCP207
Description: Fluorescence polarization measurements were acquired with a Tecan infinite M1000Pro plate reader by exciting at 470 nm and measuring polarized emission at 519 nm with 5 nm excitation and emission bandwidths. The fluorescence polarization was calculated from the emission polarized parallel and perpendicular to the polarized excitation light. Fluorescence polarization measurements were carried out using increasing concentrations of MORC4 ATPaseCW, ATPase alone, or CW alone with 5 nM 207 bp Fluorescein-labeled NCPs in 15 mM Tris pH 7.5, 75 mM NaCl, 0.00625% Tween 20, and 5 mM dithiothreitol buffer in 30 µL reaction volumes. The samples were loaded into a Corning round bottom black polystyrene plate and incubated at room temperature for 10 min before fluorescence polarization measurements of the samples were taken. The data were then fit to a non-cooperative binding isotherm to determine S1/2 values. Errors represent a S.D. between the S1/2 values based on three runs.
(§1) Histone octamers unlabeled or labeled with Cy5 at H2AK119 were prepared as previously described. NCPs were reconstituted by combining octamer with 1.25× excess DNA and performing slow salt dialysis. Free DNA was then separated from fully reconstituted NCPs by sucrose gradient purification. NCPs for fluorescence polarization assays were reconstituted from unlabeled octamer and 207 bp DNA containing the 601 Widom sequence flanked with a 30 bp linker on either side and internally labeled with Fluorescein 27 bp in from the 5′ end. Cy3-Cy5 labeled NCPs for FRET assays were reconstituted with Cy5 labeled octamer plus either 147 bp 601 Widom DNA containing a LexA transcription factor binding site at bases 8–27[34], or 252 bp DNA containing the 601 Widom sequence with a 75 bp linker at the 3′ end, a 30 bp linker at the 5’ end, and a Gal4 transcription factor binding site at bases 8–26 in the 601 Widom sequence. The 147 bp LexA-binding DNA was labeled with Cy3 on the 5′ end, and the 252 bp Gal4-binding DNA was internally labeled with Cy3 34 bp in from the 5′ end.

[3] = tested on: NCP252; test: FRET, Gal4 titration into Cy3-Cy5 labeled NCP252; format: binding
Description: Histone octamers unlabeled or labeled with Cy5 at H2AK119 were prepared as previously described. NCPs were reconstituted by combining octamer with 1.25× excess DNA and performing slow salt dialysis. Free DNA was then separated from fully reconstituted NCPs by sucrose gradient purification. NCPs for fluorescence polarization assays were reconstituted from unlabeled octamer and 207 bp DNA containing the 601 Widom sequence flanked with a 30 bp linker on either side and internally labeled with Fluorescein 27 bp in from the 5′ end. […]
(§2) Cy3-Cy5 NCP FRET efficiency measurements were carried out on a Horiba Scientific Fluoromax 4. […] LexA titrations were carried out in 20 mM Tris pH 7.5, 75 mM NaCl, 10% glycerol, 0.00625% Tween 20 buffer with 5 nM 147 bp Cy3-Cy5 NCPs mixed in 20 µL reaction volumes and allowed to incubate for 5 mins at 4 °C before FRET of the sample was measured. […] Gal4 (1–147) titrations were carried out in 10 mM Tris pH 8, 130 mM NaCl, 10% glycerol, 0.0075% Tween 20 buffer with 1 nM 252 bp Cy3-Cy5 nucleosomes mixed in 60 µL reaction volumes and allowed to incubate for 10 mins at room temperature before FRET of the sample was measured. […]

[4] = tested on: NCP147; test: FRET, LexA titration into Cy3-Cy5 labeled NCP147; format: binding; conditions: addition of MORC4 ATPaseCW
Description: as §1
LexA was expressed in E. coli, separated from genomic DNA and the proteome by polyethyleneimine precipitation, and salted out with ammonium sulfate. LexA was resuspended in buffer A (20 mM potassium phosphate pH 7, 0.1 mM EDTA, 10% glycerol, 1 mM DTT) + 200 mM NaCl and purified by a linear gradient to A + 800 mM NaCl over either a cellulose phosphate or HiTrap Heparin HP column. […]
as §2

[5] = tested on: O’RangeRuler 5 bp ladder; test: EMSA with DNA ladder (minimum DNA length); format: binding; conditions: 5 bp ladder 50 ng, pH 7.5, 150 mM NaCl
Description: EMSA experiments were performed essentially as described. In brief, increasing amounts of WT or mutant CW or ATPaseCW cassette of MORC4 were incubated with 147 bp 601 DNA (5 pmol) or 50 ng of O’RangeRuler 5 bp ladder (Thermo Scientific) in a DNA-binding buffer containing 20 mM Tris-HCl (pH 7.5), 150 mM NaCl, 2.5 mM MgCl2, and 2 mM DTT for 0.5 h on ice. The reaction mixtures were loaded on 5% native polyacrylamide gels, and electrophoresis was performed in 0.2× Tris-borate-EDTA (TBE) buffer at 100 V for 1.2 h on ice. Gels were stained with SYBR Gold (Invitrogen).

B1: ATPaseCW: ATPaseCW cassette (aa 29–486) of human MORC4 (Q8TE76) (protein)
chain: GIRLSTMSPRYLQSNSSSHTRPFSAIAELLDNAVDPDVSARTVFIDVEEVKNKSCLTFTDDGCGMTPHKLHRMLSFGFTDKVIKKSQCPIGVFGNGFKSGSMRLGKDALVFTKNGGTLTVGLLSQTYLECVQAQAVIVPIVPFNQQNKKMIITEDSLPSLEAILNYSIFNRENDLLAQFDAIPGKKGTRVLIWNIRRNKNGKSELDFDTDQYDILVSDFDTEEKMTGGVTSELPETEYSLRAFCGILYMKPRMKIFLRQKKVTTQMIAKSLANVEYDTYKPTFTNKQVRITFGFSCKNSNQFGIMMYHNNRLIKSFEKVGCQVKPTRGEGVGVIGVIECNFLKPAYNKQDFEYTKEYRLTINALAQKLNAYWKEKTSQDNFETSTVARPIPKVPDQTWVQCDECLKWRKLPGKIDPSMLPARWFCYYNSHPKYRRCSVPEEQELTDEDLCLSKAKKQE
modifications: left off: GST, end not stated, cleaved
[1]; NCP147 vs NCP207 (peer review file)
  decrease in binding to NCP147 compared to NCP207: 2 fold
[1]; fluorescence polarization, pH 7.5, 75 mM NaCl, room temperature, 10 min, mean of n = 3
  S1/2: 0.4 µM
[2]; ATPaseCW vs ATPase domain, either NCP147 or NCP207
  tighter binding to NCP147 or NCP207 than the ATPase domain only: 2.5–6 fold
[2]; NCP207 vs NCP147
  increase in interaction with NCP207 relative to NCP147: ~ 2 fold
[2]; fluorescence polarization, 5 nM NCP207, pH 7.5, 75 mM NaCl, room temperature, 10 min, mean ± S.D. of n = 3
  S1/2: 0.20 ± 0.07 µM
[3]
  effect on nucleosome unwrapping-wrapping equilibrium: shifts the unwrapping-wrapping equilibrium toward the wrapped state
[4]
  effect on binding of LexA to NCP147: decrease in binding of LexA to NCP147
[5]
  minimum DNA length for appreciable interaction: ≥ 30 bp
